Data reported in patent US20220372111A1.
pKd: −log10 of the molar value.

Key:
[1] = molecular target: LDL receptor-related protein 1 (LRP1), purified from human placenta (human) (UniProt Q07954); test: SPR equilibrium analysis, LRP1 immobilised
[2] = molecular target: LDL receptor-related protein 1 (LRP1), purified from human placenta (human) (UniProt Q07954); test: SPR equilibrium KD relative to I91L PAI-1

UniProt Q07954, sequence (Q07954 20-4544): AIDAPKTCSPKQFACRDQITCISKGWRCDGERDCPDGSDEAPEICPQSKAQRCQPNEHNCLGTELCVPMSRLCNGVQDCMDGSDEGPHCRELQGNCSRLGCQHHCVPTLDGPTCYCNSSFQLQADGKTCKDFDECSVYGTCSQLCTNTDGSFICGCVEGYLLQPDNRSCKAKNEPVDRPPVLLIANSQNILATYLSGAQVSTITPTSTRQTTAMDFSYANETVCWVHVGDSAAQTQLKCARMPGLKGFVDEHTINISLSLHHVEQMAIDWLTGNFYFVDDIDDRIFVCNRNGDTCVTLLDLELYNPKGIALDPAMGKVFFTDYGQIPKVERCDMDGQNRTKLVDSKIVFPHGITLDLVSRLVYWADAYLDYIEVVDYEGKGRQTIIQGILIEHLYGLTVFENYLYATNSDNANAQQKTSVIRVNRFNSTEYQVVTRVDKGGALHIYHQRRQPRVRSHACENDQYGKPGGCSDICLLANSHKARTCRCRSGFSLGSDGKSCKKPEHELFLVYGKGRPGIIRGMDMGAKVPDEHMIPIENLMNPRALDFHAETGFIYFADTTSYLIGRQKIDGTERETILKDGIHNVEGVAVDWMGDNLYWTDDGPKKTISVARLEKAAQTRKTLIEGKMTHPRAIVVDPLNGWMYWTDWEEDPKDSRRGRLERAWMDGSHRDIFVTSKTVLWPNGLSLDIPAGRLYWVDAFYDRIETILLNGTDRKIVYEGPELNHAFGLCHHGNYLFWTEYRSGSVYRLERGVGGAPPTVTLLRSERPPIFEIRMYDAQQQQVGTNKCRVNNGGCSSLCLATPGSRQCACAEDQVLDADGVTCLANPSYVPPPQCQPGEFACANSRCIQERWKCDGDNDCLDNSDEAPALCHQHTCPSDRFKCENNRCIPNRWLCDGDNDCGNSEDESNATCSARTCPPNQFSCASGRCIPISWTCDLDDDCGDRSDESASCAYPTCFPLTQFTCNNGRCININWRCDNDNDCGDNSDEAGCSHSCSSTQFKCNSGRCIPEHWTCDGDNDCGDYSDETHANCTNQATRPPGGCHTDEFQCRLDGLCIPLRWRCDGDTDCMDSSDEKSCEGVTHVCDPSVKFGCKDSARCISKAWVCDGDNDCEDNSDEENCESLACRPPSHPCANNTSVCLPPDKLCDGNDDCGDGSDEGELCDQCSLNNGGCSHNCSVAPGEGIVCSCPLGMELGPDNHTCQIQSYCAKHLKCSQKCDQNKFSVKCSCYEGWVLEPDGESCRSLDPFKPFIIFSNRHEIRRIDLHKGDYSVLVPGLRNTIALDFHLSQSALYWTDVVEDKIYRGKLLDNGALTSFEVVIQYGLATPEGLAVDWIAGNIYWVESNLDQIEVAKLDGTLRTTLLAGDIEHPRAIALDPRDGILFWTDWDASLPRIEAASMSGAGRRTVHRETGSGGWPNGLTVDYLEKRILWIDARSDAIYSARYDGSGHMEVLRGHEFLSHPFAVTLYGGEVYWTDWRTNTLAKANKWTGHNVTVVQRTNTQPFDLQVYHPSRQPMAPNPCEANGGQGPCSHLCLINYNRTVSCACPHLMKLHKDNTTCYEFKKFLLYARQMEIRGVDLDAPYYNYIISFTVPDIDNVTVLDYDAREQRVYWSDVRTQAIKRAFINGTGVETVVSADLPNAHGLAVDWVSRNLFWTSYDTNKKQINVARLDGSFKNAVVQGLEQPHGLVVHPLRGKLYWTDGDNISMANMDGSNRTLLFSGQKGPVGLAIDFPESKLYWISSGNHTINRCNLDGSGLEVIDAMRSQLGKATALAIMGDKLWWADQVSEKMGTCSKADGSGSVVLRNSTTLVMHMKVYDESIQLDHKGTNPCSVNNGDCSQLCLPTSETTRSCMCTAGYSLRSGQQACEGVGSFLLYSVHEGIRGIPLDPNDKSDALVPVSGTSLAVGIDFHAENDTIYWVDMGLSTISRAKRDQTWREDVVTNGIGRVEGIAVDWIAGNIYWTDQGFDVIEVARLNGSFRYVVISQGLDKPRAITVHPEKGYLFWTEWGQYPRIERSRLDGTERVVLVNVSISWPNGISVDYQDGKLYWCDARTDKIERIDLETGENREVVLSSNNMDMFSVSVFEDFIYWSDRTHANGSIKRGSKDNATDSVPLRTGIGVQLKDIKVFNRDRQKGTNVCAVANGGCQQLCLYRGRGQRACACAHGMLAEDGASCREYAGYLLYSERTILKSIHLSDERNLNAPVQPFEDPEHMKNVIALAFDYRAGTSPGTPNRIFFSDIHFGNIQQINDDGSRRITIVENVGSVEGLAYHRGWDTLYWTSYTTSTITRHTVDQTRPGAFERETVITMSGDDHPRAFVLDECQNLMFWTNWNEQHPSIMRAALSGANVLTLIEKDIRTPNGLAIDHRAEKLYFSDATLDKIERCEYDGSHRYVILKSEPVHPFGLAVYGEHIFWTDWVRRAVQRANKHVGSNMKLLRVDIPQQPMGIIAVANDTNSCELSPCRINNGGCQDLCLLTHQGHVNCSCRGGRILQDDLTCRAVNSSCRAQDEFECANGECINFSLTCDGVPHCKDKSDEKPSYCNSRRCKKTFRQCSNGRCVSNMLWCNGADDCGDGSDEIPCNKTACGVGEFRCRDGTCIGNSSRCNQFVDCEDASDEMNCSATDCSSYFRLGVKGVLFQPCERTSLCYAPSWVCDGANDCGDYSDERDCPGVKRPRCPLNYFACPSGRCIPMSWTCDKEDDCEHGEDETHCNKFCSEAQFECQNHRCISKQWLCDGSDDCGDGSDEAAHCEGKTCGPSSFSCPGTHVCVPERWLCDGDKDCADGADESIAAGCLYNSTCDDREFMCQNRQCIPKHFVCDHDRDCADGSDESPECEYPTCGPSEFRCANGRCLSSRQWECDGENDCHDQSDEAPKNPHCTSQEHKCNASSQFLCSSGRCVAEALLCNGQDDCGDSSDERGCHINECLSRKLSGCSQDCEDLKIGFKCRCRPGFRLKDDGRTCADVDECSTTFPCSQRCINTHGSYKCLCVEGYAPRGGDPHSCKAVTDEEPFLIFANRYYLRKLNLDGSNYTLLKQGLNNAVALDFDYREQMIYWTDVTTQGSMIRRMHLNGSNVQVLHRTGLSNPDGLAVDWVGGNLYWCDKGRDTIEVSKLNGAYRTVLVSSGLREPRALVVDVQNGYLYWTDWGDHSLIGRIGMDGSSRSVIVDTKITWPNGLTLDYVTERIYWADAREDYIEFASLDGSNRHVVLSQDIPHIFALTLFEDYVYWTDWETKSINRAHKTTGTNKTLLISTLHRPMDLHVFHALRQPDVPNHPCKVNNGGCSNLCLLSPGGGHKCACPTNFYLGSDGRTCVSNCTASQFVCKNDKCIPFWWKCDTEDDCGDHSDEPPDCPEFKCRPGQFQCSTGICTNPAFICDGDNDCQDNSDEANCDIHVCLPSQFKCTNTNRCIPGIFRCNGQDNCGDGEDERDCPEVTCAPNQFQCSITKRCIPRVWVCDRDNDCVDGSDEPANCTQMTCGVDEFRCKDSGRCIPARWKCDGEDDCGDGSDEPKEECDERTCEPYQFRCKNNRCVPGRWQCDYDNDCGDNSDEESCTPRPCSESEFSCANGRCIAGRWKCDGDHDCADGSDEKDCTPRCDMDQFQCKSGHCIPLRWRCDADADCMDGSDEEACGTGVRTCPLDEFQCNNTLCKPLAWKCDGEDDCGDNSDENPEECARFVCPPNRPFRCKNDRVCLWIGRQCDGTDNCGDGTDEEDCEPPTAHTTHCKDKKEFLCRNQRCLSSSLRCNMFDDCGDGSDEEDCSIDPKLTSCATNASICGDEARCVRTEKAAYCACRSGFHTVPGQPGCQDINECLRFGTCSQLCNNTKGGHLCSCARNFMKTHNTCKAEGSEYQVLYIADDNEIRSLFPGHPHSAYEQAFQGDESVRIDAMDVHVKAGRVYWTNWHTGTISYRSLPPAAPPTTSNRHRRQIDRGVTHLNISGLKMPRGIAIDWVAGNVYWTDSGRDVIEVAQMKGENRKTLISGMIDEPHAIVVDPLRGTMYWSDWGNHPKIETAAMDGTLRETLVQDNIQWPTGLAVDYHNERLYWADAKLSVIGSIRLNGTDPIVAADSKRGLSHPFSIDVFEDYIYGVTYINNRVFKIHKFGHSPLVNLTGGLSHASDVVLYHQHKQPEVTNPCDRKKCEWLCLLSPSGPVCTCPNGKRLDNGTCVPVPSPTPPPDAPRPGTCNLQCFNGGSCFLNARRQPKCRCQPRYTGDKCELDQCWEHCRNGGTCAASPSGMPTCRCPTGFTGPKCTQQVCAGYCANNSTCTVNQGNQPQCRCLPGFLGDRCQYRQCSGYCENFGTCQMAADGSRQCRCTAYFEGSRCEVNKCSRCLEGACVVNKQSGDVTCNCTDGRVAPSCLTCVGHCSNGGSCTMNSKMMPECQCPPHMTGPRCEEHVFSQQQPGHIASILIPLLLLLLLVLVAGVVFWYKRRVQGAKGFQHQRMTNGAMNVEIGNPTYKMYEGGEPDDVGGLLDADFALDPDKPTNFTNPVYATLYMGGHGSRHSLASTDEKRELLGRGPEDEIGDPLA

Question: “14-1B R76E PAI-1 (from UniProt P05121 24-402)” was tested. Which pKd [1] did it give?
Answer: Its pKd is 5.75.

Question: And the Fold change [2]?
Answer: The Fold change was 32 fold.
